Results: patent US20160159862A1 (PROTAGONIST THERAPEUTICS, published 2016)
Bridge positions count the residues as written; N and C are the ends. Square brackets hold non-standard residues; d marks the D form. Ends that are not written are not given here. * marks the point of attachment. Phe(4-CF3) = N[C@@H](Cc1ccc(C(F)(F)F)cc1)C(=O)O; Phe(4-tBu) = CC(C)(C)c1ccc(C[C@H](N)C(=O)O)cc1; 2Nal = N[C@@H](Cc1ccc2ccccc2c1)C(=O)O; d1Nal = N[C@H](Cc1cccc2ccccc12)C(=O)O; d2Nal = N[C@H](Cc1ccc2ccccc2c1)C(=O)O; Oleoyl = CCCCCCCC/C=C\CCCCCCCC(=O)*; NMeR = CN[C@@H](CCCNC(=N)N)C(=O)O; Palmitoyl = CCCCCCCCCCCCCCCC(=O)*; hPhe = N[C@@H](CCc1ccccc1)C(=O)O; Myristoyl = CCCCCCCCCCCCCC(=O)*; NMeE = CN[C@@H](CCC(=O)O)C(=O)O; β3hE = N[C@@H](CCC(=O)O)CC(=O)O; Pen = CC(C)(S)[C@H](N)C(=O)O; dNMeK = CN[C@H](CCCCN)C(=O)O; Lauroyl = CCCCCCCCCCCC(=O)*; Isovaleryl = CC(C)CC(=O)*; Hexanoyl = CCCCCC(=O)*

B1: SEQ ID NO 175 (peptide)
peptide: Ac-[Pen][NMeR]SDTL[Pen][Phe(4-tBu)][b‑H‑E][dK]
modifications: disulfide 1-7 (inferred); not fully specified (residue 10); also: myristoyl (myristoyl chloride) attached after k
B2: SEQ ID NO 171 (peptide)
peptide: Ac-[Pen][NMeR]SDTL[Pen][Phe(4-tBu)][b‑H‑E][dK]
modifications: disulfide 1-7 (inferred); not fully specified (residue 10); also: isovaleric acid attached after k
B3: SEQ ID NO 169 (peptide)
peptide: Ac-[Pen][NMeR]SDTL[Pen][Phe(4-tBu)][b‑H‑E][dK]
modifications: disulfide 1-7 (inferred); not fully specified (residue 10); also: 4,4,4-trifluorobutyric acid attached after k
B4: SEQ ID NO 170 (peptide)
peptide: Ac-[Pen][NMeR]SDTL[Pen][Phe(4-tBu)][b‑H‑E][dK]
modifications: disulfide 1-7 (inferred); not fully specified (residue 10); also: hexanoic acid attached after k
B5: SEQ ID NO 172 (peptide)
peptide: Ac-[Pen][NMeR]SDTL[Pen][Phe(4-tBu)][b‑H‑E][dK]
modifications: disulfide 1-7 (inferred); not fully specified (residue 10); also: palmitoyl (palmitoyl chloride) attached after k
B6: SEQ ID NO 174 (peptide)
peptide: Ac-[Pen][NMeR]SDTL[Pen][Phe(4-tBu)][b‑H‑E][dK]
modifications: disulfide 1-7 (inferred); not fully specified (residue 10); also: oleoyl (oleoyl chloride) attached after k
B7: SEQ ID NO 173 (peptide)
peptide: Ac-[Pen][NMeR]SDTL[Pen][Phe(4-tBu)][b‑H‑E][dK]
modifications: disulfide 1-7 (inferred); not fully specified (residue 10); also: lauroyl (lauroyl chloride) attached after k

Molecular target: α4β7 integrin on human cells (human, UniProt P13612 34-1032; P26010 20-798)
Assay: cell-based or functional assay

α4β7 cell (Hu) IC50 [nM] | PBMC IC50 [nM] | Binder
> 500 | – | B1
> 100 | – | Lauroyl-[Pen][NMeR]SDTL[Pen][Phe(4-tBu)][β3hE][dK]-NH2 (disulfide 1-7 (inferred)) [SEQ ID NO 179]
> 10 | – | B2
> 25 | – | Ac-[Pen][NMeR]SDTL[Pen][Phe(4-CF3)][dE][dK]-NH2 (disulfide 1-7 (inferred); also: homodimer via DIG linker) [SEQ ID NO 3]
> 10000 | – | Ac-[Pen][NMeR]SQIQ[Pen][Phe(4-tBu)][β3hE][dK]-NH2 (disulfide 1-7 (inferred); also: homodimer via DIG) [SEQ ID NO 189]
> 50 | – | Hexanoyl-[Pen][NMeR]SDTL[Pen][Phe(4-tBu)][b‑H‑E][dK]-NH2 (disulfide 1-7 (inferred)) [SEQ ID NO 176]
> 100 | – | Ac-[Pen][NMeR]SDTL[Pen][dF]E[dK]-NH2 (disulfide 1-7 (inferred); also: homodimer via DIG linker) [SEQ ID NO 30]
> 100 | – | Ac-[Pen][NMeR]SDTL[Pen][dF][dE][dK]-NH2 (disulfide 1-7 (inferred); also: homodimer via DIG) [SEQ ID NO 2]
> 25 | – | Ac-[Pen][NMeR]SDTL[Pen][d1Nal]E[dK]-NH2 (disulfide 1-7 (inferred); also: homodimer via DIG linker) [SEQ ID NO 34]
> 50 | – | Ac-[Pen][NMeR]SDTL[Pen][dW]E[dK]-NH2 (disulfide 1-7 (inferred); also: homodimer via DIG) [SEQ ID NO 28]
> 50 | – | Ac-C[NMeR]SDTL[Pen]W[dK]-NH2 (disulfide 1-7 (inferred); also: homodimer via PEG13 linker) [SEQ ID NO 36]
≤ 10 | ≤ 10 | Ac-[Pen][NMeR]SDTL[Pen][Phe(4-tBu)][b‑H‑E][dK]-OH (disulfide 1-7 (inferred); also: homodimer via DIG) [SEQ ID NO 168]
> 10 | > 100 | Ac-[Pen][NMeR]SDTL[Pen][Phe(4-tBu)][b‑H‑E]-NH2 (disulfide 1-7 (inferred)) [SEQ ID NO 165]
> 100000 | – | Ac-[Pen][NMeR]SQIQ[Pen][Phe(4-tBu)][β3hE][dK]-NH2 (disulfide 1-7 (inferred); also: homodimer via IDA) [SEQ ID NO 190]
> 25 | – | Ac-[Pen][NMeR]SDTL[Pen][hPhe]E[dK]-NH2 (disulfide 1-7 (inferred); also: homodimer via DIG linker) [SEQ ID NO 45]
> 10 | – | B3
> 100000 | – | Ac-[Pen][NMeR]SDDL[Pen][Phe(4-tBu)][β3hE][dK]-NH2 (disulfide 1-7 (inferred); also: homodimer via IDA, Alexa-647 label on IDA) [SEQ ID NO 193]
> 1000 | – | Oleoyl-[Pen][NMeR]SDTL[Pen][Phe(4-tBu)][β3hE][dK]-NH2 (disulfide 1-7 (inferred)) [SEQ ID NO 180]

α4β7 cell (Hu) IC50 [nM] | PBMC IC50 [nM] | Binder
> 100 | – | Ac-[Pen][NMeR]SDTL[Pen][d2Nal]E[dK]-NH2 (disulfide 1-7 (inferred); also: homodimer via DIG linker) [SEQ ID NO 35]
> 50 | – | Isovaleryl-[Pen][NMeR]SDTL[Pen][Phe(4-tBu)][b‑H‑E][dK]-NH2 (disulfide 1-7 (inferred)) [SEQ ID NO 177]
> 1000 | – | Myristoyl-[Pen][NMeR]SDTL[Pen][Phe(4-tBu)][β3hE][dK]-NH2 (disulfide 1-7 (inferred)) [SEQ ID NO 181]
> 1000 | – | Palmitoyl-[Pen][NMeR]SDTL[Pen][Phe(4-tBu)][β3hE][dK]-NH2 (disulfide 1-7 (inferred)) [SEQ ID NO 178]
> 100 | – | Ac-[Pen][NMeR]SDIL[Pen][Phe(4-tBu)][β3hE][dK]-NH2 (disulfide 1-7 (inferred); also: homodimer via IDA) [SEQ ID NO 186]
> 10 | – | B4
> 10000 | – | Ac-[Pen][NMeR]SQIQ[Pen][Phe(4-tBu)][β3hE][dK]-NH2 (disulfide 1-7 (inferred); also: homodimer via IDA, Alexa-647 label on IDA) [SEQ ID NO 192]
> 100 | – | Ac-C[NMeR]SDTL[Pen]W[dK]-NH2 (disulfide 1-7 (inferred); also: homodimer via PEG25 linker) [SEQ ID NO 37]
> 10000 | – | Ac-[Pen][NMeR]SDDL[Pen][Phe(4-tBu)][β3hE][dK]-NH2 (disulfide 1-7 (inferred); also: homodimer via IDA) [SEQ ID NO 191]
> 50 | – | Ac-[Pen][NMeR]SDTL[Pen]W[NMeE][dK]-NH2 (disulfide 1-7 (inferred); also: homodimer via DIG linker) [SEQ ID NO 31]
965 | – | B5
> 1000 | – | B6
> 100 | – | B7
≤ 10 | ≤ 10 | Ac-[Pen][NMeR]SDTL[Pen][Phe(4-tBu)][b‑H‑E][dK]-NH2 (disulfide 1-7 (inferred); also: homodimer via IDA-PEG4-Biotin) [SEQ ID NO 167]
≤ 10 | ≤ 10 | Ac-[Pen][NMeR]SDTL[Pen][Phe(4-tBu)][b‑H‑E][dK]-NH2 (disulfide 1-7 (inferred); also: homodimer via IDA) [SEQ ID NO 166]
≤ 10 | – | Ac-[Pen][NMeR]SDIL[Pen][Phe(4-tBu)][β3hE][dK]-NH2 (disulfide 1-7 (inferred); also: homodimer via IDA, Alexa-647 label on IDA) [SEQ ID NO 188]
> 10 | – | Ac-[Pen][NMeR]SDTL[Pen][2Nal][dE][dNMeK]-NH2 (disulfide 1-7 (inferred); also: homodimer via DIG linker) [SEQ ID NO 39]
> 100 | – | Ac-[Pen][NMeR]SDTQ[Pen][Phe(4-tBu)][β3hE][dK]-NH2 (disulfide 1-7 (inferred); also: homodimer via IDA) [SEQ ID NO 187]
